pKd: −log10 of the molar value.
Columns and labels:
[1] = molecular target: nucleosome core particle (recombinant X. laevis histone octamer on 601 positioning DNA) (X. laevis); experiment: native gel or EMSA
[2] = molecular target: nucleosome core particle (recombinant X. laevis histone octamer on 601 positioning DNA) (X. laevis); experiment: MST
[3] = molecular target: nucleosome core particle (recombinant X. laevis histone octamer on 601 positioning DNA) (X. laevis); experiment: AUC
[4] = molecular target: nucleosome core particle (recombinant X. laevis histone octamer on 601 positioning DNA) (X. laevis); experiment: SEC-MALS

BCL7A (1-100) truncation mutant (from UniProt Q4VC05-2 1-100) (domain or fragment)
pKd [1]: 6.36

BCL7A P78S mutant protein (from UniProt Q4VC05-2 1-231) (natural protein)
decrease of binding affinity against wild type [1]: 50%

BCL7A R11S mutant protein (from UniProt Q4VC05-2 1-231) (natural protein)
decrease of binding affinity against wild type [1]: 50%

BCL7A, full length human (isoform Q4VC05-2, 231 amino acids) (from UniProt Q4VC05-2 1-231) (natural protein)
pKd [2]: 6.64 | stoichiometry N (BCL7A per NCP) [3]: 1 | pKd [1]: 6.66 | stoichiometry N (BCL7A per NCP) [4]: 1

BCL7C, full length (from UniProt Q8WUZ0 1-217) (natural protein)
pKd [1]: 6.91
